Measurements published in patent publication US20030166056A1, “Transmembrane protein as a downstream target of neurotrophin and ephrin receptor tyrosine kinases, DNA encoding same and monoclonal antibodies thereto” (New York University, priority 2000, published 2003).
Entries after “also recorded” stand apart in the source; their conditions may differ.

What was measured:
Format in all cases: cell-based
[1] = test system: tyrosine phosphorylation of ARMS by TrkA in PC12 615 cells; assay: Tyrosine phosphorylation of ARMS in PC12 615 cells (IP with 892 antiserum, pY99 immunoblot); settings: for Induction of tyrosine phosphorylation of ARMS: 100 ng/ml NGF, 50 ng/ml EGF, 10 minutes and 2 hours; for Block of NGF-induced tyrosine phosphorylation of ARMS: 100 nM pretreatment
Procedure: Human embryonic kidney (HEK) 293 and 293T cells were maintained in Dulbecco's Modified Eagle's Medium (DMEM) containing 10% fetal bovine serum (FBS) supplemented with 100 U/ml penicillin, 100 μg/ml streptomycin, and 2 mM glutamine. Native PC12 cells, TrkA-overexpressing PC12 cells (615) (Hempstead et al., 1992), and TrkB-overexpressing PC12 cells were maintained in DMEM containing 10% FBS and 5% heat-inactivated horse serum with 30 U/ml penicillin, 30 μg/ml streptomycin, 2 mM glutamine, and 200 μg/ml G418.
For transient transfection experiments, HEK293 or HEK293T cells plated at 70-80% confluency in 10 cm dishes were subjected to calcium phosphate transfection with different combinations of the mammalian expression plasmids containing cDNAs for ARMS, rat TrkA, and rat HA-tagged p75 (Khursigara et al., 1999). PC12 615 cells or transiently transfected cells were harvested and lysed in 1 ml TNE buffer (10 mM Tris (pH 8.0), 150 mM NaCl, 1 mM EDTA, and 1% NP40) containing 0.12 mg/ml phenylmethylsulfonyl fluoride (PMSF), 2 μg/ml leupeptin, 1 μg/ml aprotinin, 10 mM sodium fluoride (NaF), and 1 mM sodium orthovanadate (Na3VO4) for 30 min on ice. Following centrifugation and removal of the insoluble fraction, protein concentration of the supernatant was determined by the Bio-Rad Protein Assay reagent (Bio-Rad Laboratories, Hercules, Calif.) with bovine serum albumin as the standard. Cell lysates of equivalent protein content were incubated for 4 hours to overnight with rotation at 4° C. with either anti-pan-Trk polyclonal antibody, C14 (1.5 μg) or anti-ARMS (892) antiserum (1:100). The immune complexes were immobilized on protein A-Sepharose beads (Sigma), washed six times with ice-cold TNE buffer, boiled in SDS-sample buffer, separated by sodium dodecyl sulfate-polyacrylamide gel electrophoresis (SDS-PAGE), and transferred onto PVDF membrane (Millipore, Bedford, Mass.). Immunoblotting was carried out by first blocking membranes in TBST buffer (20 mM Tris (pH 7.5), 500 mM NaCl, 0.1% Tween-20) containing 5% BSA for pY99 and 5% nonfat milk for others, and then incubating for 2 hours at room temperature or overnight at 4° C. in TBST buffer containing one of the following primary antibodies: anti-Trk 44 serum (1:2000); anti-phosphotyrosine pY99 antibody (0.1 μg/ml) (Santa Cruz Biotechnology, Santa Cruz, Calif.); anti-ARMS (892) antiserum (1:1000). Membranes were washed with TBST buffer and then incubated with horseradish peroxidase (HRP)-conjugated goat anti-rabbit (Roche Molecular Biochemicals, Indianapolis, Ind.) or goat anti-mouse secondary antibodies (Jackson ImmunoResearch Laboratories, West Grove, Pa.) at 1:10,000 and 1:7500 dilutions, respectively. Immunoreactive protein bands were detected by enhanced chemiluminescence using ECL reagents (Amersham Pharmacia Biotech, Piscataway, N.J.).
The high degree of correspondence in the expression of ARMS and neurotrophin receptors and the endogenous association with TrkA receptors led the present inventors to postulate that ARMS might function as a target for Trk receptor phosphorylation. To investigate this possibility, cell lysates from NGF-treated PC12 cells were prepared and the ARMS protein was immunoprecipitated with anti-ARMS antiserum, 892. Phosphorylation of ARMS protein was visualized by immunoblotting with an anti-phosphotyrosine antibody, pY99. Tyrosine phosphorylation of ARMS was detectable within a minute of NGF addition (FIG. 10A, top), closely following the time course of TrkA autophosphorylation (FIG. 10A, bottom). With continued NGF treatment, the phosphorylation of ARMS persisted for 25 hours (FIG. 10B).

[2] = target: T1, association between ARMS and the TrkA receptor; assay: Coprecipitation of TrkA and ARMS in PC12 615 cells; settings: NGF 100 ng/ml
T1 construct: expressed in transfected cells; host or cells: PC12 615 cells (TrkA-overexpressing PC12); ARMS is endogenous to these cells
T1 sequence (P04629 33-796): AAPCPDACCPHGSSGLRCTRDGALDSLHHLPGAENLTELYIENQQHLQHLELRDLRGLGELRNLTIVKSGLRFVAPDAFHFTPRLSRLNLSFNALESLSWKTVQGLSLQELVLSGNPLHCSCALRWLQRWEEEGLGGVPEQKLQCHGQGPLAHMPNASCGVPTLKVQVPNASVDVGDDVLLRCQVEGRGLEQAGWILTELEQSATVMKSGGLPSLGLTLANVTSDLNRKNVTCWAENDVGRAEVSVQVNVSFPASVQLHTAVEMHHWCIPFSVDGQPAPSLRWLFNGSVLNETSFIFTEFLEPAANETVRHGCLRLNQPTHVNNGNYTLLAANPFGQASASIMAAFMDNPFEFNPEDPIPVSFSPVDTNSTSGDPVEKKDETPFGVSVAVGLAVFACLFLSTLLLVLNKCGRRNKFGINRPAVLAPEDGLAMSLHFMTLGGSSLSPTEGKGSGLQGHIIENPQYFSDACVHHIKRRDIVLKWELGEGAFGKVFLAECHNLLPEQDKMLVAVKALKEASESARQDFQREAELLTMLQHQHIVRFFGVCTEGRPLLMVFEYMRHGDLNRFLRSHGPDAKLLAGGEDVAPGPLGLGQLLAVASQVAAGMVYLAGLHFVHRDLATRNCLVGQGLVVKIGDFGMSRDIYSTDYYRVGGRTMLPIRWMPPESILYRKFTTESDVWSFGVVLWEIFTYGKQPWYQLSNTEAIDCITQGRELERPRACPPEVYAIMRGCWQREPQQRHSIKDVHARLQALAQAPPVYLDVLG
T1 sequence (Q9EQG6 whole entry partner): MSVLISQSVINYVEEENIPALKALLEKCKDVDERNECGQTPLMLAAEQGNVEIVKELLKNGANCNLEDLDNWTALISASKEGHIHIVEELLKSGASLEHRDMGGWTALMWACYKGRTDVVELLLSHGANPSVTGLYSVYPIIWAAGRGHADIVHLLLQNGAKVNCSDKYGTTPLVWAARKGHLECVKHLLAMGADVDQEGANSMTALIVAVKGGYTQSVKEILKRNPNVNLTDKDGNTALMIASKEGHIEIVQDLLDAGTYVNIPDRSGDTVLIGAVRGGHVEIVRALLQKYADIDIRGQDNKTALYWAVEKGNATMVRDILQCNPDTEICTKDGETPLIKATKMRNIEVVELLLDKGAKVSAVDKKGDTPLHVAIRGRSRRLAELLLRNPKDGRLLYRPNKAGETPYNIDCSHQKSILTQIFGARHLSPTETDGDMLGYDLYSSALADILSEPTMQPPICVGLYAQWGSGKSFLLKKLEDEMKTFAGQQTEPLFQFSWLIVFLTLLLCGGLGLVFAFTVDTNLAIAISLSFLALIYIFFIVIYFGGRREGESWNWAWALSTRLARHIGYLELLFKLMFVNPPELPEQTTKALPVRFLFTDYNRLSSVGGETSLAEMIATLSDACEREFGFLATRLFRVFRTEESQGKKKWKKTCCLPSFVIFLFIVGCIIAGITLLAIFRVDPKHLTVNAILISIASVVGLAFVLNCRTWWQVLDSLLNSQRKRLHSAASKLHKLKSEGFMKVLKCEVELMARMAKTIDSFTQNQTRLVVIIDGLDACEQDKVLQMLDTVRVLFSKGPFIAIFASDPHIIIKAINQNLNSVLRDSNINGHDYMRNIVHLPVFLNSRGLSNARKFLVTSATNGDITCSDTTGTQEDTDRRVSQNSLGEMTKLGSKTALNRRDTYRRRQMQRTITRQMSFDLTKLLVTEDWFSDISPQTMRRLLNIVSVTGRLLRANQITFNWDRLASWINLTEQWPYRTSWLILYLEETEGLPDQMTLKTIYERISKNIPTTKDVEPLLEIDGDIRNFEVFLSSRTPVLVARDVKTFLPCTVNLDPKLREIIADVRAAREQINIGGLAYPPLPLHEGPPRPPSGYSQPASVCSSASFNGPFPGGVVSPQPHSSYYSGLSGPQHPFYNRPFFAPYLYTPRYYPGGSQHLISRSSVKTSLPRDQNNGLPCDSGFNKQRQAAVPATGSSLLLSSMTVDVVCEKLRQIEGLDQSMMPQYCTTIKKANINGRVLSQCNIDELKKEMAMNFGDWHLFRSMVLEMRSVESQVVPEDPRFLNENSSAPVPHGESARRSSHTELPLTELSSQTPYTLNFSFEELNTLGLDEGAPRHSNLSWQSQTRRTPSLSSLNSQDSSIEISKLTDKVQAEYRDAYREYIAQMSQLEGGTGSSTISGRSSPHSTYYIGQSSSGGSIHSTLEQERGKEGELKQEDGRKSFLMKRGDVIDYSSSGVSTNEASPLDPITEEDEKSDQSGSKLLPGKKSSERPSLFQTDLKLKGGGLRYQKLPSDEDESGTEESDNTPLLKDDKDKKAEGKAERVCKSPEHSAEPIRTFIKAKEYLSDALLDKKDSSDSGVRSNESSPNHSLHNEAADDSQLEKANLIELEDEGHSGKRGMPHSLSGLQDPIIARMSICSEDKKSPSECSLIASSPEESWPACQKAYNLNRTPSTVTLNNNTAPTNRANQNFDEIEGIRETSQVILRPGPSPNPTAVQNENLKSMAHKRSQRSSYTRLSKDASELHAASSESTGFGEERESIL
Procedure: (§1) FIGS. 9A-9D show coprecipitation of TrkA and ARMS (FIG. 9A) and colocalization of TrkA and ARMS (FIGS. 9B-9D). In FIG. 9A, PC12 615 cells were treated for 10 minutes and 25 hours with NGF (100 ng/ml). Lysates were prepared and subjected to immunoprecipitation with anti-Trk C-14 antibody, followed by immunoblot with anti-ARMS antibody. Normal rabbit IgG was used as a negative control. In FIGS. 9B-9D, immunofluorescence analysis of ARMS and TrkA receptor in sympathetic neurons is shown. SCG sympathetic neurons were grown in the presence of 150 ng/ml NGF, fixed and immunostained as described in the Methods section of Example 1. The ARMS protein and the TrkA receptor were subjected to double immunostaining using an anti-ARMS antiserum (FIG. 9B) and an anti-Trk B-3 (FIG. 9C) monoclonal antibody and analyzed by confocal microscopy. […]
(§2) For transient transfection experiments, HEK293 or HEK293T cells plated at 70-80% confluency in 10 cm dishes were subjected to calcium phosphate transfection with different combinations of the mammalian expression plasmids containing cDNAs for ARMS, rat TrkA, and rat HA-tagged p75 (Khursigara et al., 1999). […] Following centrifugation and removal of the insoluble fraction, protein concentration of the supernatant was determined by the Bio-Rad Protein Assay reagent (Bio-Rad Laboratories, Hercules, Calif.) with bovine serum albumin as the standard. […]

[3] = target: T2, association between ARMS and the TrkA receptor (Homo sapiens, UniProt P04629); assay: Coprecipitation of TrkA and ARMS in PC12 615 cells; settings: NGF 100 ng/ml, IP anti-Trk C-14, blot anti-ARMS
T2 construct: expressed in transfected cells; host or cells: PC12 615 cells (TrkA-overexpressing PC12); ARMS is endogenous to these cells
T2 sequence (P04629 33-796): as the sequence (P04629 33-796) above
T2 sequence (Q9EQG6 whole entry partner): as the sequence (Q9EQG6 whole entry partner) above
Procedure: as §1, §2

[4] = test system: distribution of ARMS in hippocampal neurons and PC12 cells; assay: Immunofluorescence analysis of ARMS distribution; settings: confocal immunofluorescence with antibody 892
Procedure: FIGS. 16A and 16B show a PC12 Immunofluorescence analysis. PC12 cells with (FIG. 16A) or without (FIG. 16B) NGF treatment cultured in Lab-Tek chamber slides (Nalge Nunc International) coated with collagen and poly-L-lysine were fixed with paraformaldehyde and permeablized with cold methanol. Cells were blocked with PBS containing 10% FCS and incubated with purified antibody (3 μg/ml) against the C-terminus of ARMS protein, 892 (Example 1). Primary antibodies were visualized using fluorescence-conjugated secondary antibodies (FITC-conjugated goat anti-rabbit IgG; Jackson Laboratories).
FIGS. 17A-17F show immunolocalization of ARMS and VAMP-2, a synaptic vesicle marker, in hippocampal neurons. Primary cultures of hippocampal neurons were obtained from rats E17-19 and maintained with Neurobasal medium (Gibco) supplemented with B-27 and 0.4 mM glutamine in Lab-Tek chamber slides (Nalge Nunc International) coated with poly-L-lysine. […] Primary antibodies were detected using fluorescence-conjugated secondary antibodies (FITC-conjugated goat anti-rabbit IgG and rhodamine-conjugated goat anti-mouse IgG (Jackson Laboratories)). […]

| Molecule | Induction of tyrosine phosphorylation of ARMS ([1]; PC12 615 cells) | Block of NGF-induced tyrosine phosphorylation of ARMS ([1]; PC12 615 cells, NGF treatment) | Block of NGF-induced tyrosine phosphorylation of ARMS ([1]; PC12 615 cells, NGF treatment, listed as K-252a) | Time to detectable ARMS phosphorylation ([1]; PC12 615 cells, NGF treatment) [min] | Time of peak ARMS phosphorylation ([1]; PC12 cells, NGF treatment) [min] | Association between ARMS and TrkA receptor [2] | Persistence of ARMS-TrkA association after treatment [3] [h] | Change in distribution of ARMS [4] |
| --- | --- | --- | --- | --- | --- | --- | --- | --- |
| insulin | not elicited | – | – | – | – | – | – | – |
| COC(=O)[C@@]1(O)C[C@H]2O[C@]1(C)n1c3ccccc3c3c4c(c5c6ccccc6n2c5c31)C(=O)NC4 [K252a, reference compound] | – | potently blocked | completely abolished | – | – | – | – | – |
| NGF: neurotrophin, ligand of TrkA; obtained from Harlan (protein, UniProt P01139 122-241, looked up) Beta-nerve growth factor: SSTHPVFHMGEFSVCDSVSVWVGDKTTATDIKGKEVTVLAEVNINNSVFRQYFFETKCRASNPVESGCRGIDSKHWNSYCTTTHTFVKALTTDEKQAAWRFIRIDTACVCVLSRKATRRG | considerably more robust; also recorded: specifically induced | – | – | ≤ 1 | ≤ 10 | NGF-dependent association | 25 | dramatic change in distribution; also recorded: localized at neurite tips |
